According to paper PMC2685004, “Recruitment of a SAP18-HDAC1 Complex into HIV-1 Virions and Its Requirement for Viral Replication” (PLoS Pathogens, 2009):

Experiments:
[1] = target: T1, 6H(hexa-histidine)-INI1/hSNF5 (human, UniProt Q12824 1-385); experiment: pull-down; glutathione sepharose beads with GST-SAP18 incubated with purified IN and INI1 together; Western blot; conditions: both partners purified
T1 construct: also called His-INI1; source: Ni-NTA and hydroxylapatite purified

[2] = target: T1, 6H(hexa-histidine)-INI1/hSNF5; experiment: pull-down; glutathione sepharose 4B beads with 5 µg GST or GST-SAP18, incubated with 2 µg His-IN or His-INI1, one at a time; 20 mM HEPES-KOH pH 6.8, 200 mM NaCl, 0.1 mM EDTA, 2-5 mM DTT, 0.1% IGEPAL, 100 µg/ml ethidium bromide, 10 U DNaseI; Western blot; conditions: both partners purified

T1 sequence (Q12824 whole entry): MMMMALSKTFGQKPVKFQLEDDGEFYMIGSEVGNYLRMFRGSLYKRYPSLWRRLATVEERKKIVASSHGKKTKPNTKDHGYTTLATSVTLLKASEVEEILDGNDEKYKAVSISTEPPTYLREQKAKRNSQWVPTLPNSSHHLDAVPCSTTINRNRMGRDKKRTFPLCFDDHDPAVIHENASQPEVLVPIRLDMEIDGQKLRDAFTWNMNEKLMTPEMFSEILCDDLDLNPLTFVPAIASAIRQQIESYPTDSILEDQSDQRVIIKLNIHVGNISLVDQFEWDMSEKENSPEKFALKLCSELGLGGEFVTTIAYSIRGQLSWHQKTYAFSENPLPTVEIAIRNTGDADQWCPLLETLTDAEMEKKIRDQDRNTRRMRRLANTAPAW

B1: GST-SAP18 (natural protein, UniProt O00422 1-153, looked up)
chain: MAVESRVTQEEIKKEPEKPIDREKTCPLLLRVFTTNNGRHHRMDEFSRGNVPSSELQIYTWMDATLKELTSLVKEVYPEARKKGTHFNFAIVFTDVKRPGYRVKEIGSTMSGRKGTDDSMTLQSQKFQIGDYLDIAITPPNRAPPPSGRMRPY
notes: also called GST (glutathione-S-transferase)-SAP18; pGEX-SAP18
B1: binds [1]; binds [2].
